The values below come from publication PMC6954272, “Structure and dynamics of the E. coli chemotaxis core signaling complex by cryo-electron tomography and molecular simulations” (Communications Biology, 2020).

For data set [1], the target named is His6-tagged 4Q variant of the cytoplasmic fragment of the E. coli aspartate receptor Tar (His6-TarCF4Q) (E. coli) (UniProt P07017). The experiment in a line: cryo-EM structure; cryo-electron tomography and sub-tomogram averaging of arrays reconstituted in vitro; His6-TarCF held on a Ni2+-NTA lipid monolayer; 9:18:18 µM TarCF:CheA:CheW; 75 mM Tris-HCl pH 7.4, 100 mM KCl, 5 mM MgCl2; overnight.

Data set [2] deals with the molecule itself. Described as above.

The molecule “His6-tagged 4Q variant of the cytoplasmic fragment of the E. coli aspartate receptor Tar (His6-TarCF4Q) (from UniProt P07017 357-553) (domain or fragment)” yielded a stoichiometry N in data set [1] of 6.

B1: E. coli adaptor protein CheW (natural protein)
chain: MTGMTNVTKLASEPSGQEFLVFTLGDEEYGIDILKVQEIRGYDQVTRIANTPAFIKGVTNLRGVIVPIVDLRIKFSQVDVDYNDNTVVIVLNLGQRVVGIVVDGVSDVLSLTAEQIRPAPEFAVTLSTEYLTGLGALGDRMLILVNIEKLLNSEEMALLDSAASEVA
In the case of B1, in data set [1], the stoichiometry N (CheW per receptor trimer-of-dimers (TOD)) came out at 2.

B2: E. coli histidine kinase CheA, domains P3-P4-P5 (P1-P2 deleted) (domain or fragment, UniProt P07363 264-654, looked up)
chain: IRVAVEKVDQLINLVGELVITQSMLAQRSSELDPVNHGDLITSMGQLQRNARDLQESVMSIRMMPMEYVFSRYPRLVRDLAGKLGKQVELTLVGSSTELDKSLIERIIDPLTHLVRNSLDHGIELPEKRLAAGKNSVGNLILSAEHQGGNICIEVTDDGAGLNRERILAKAASQGLTVSENMSDDEVAMLIFAPGFSTAEQVTDVSGRGVGMDVVKRNIQKMGGHVEIQSKQGTGTTIRILLPLTLAILDGMSVRVADEVFILPLNAVMESLQPREADLHPLAGGERVLEVRGEYLPIVELWKVFNVAGAKTEATQGIVVILQSGGRRYALLVDQLIGQHQVVVKNLESNYRKVPGISAATILGDGSVALIVDVSALQAINREQRMANTAA
notes: Histidine kinase CheA, E. coli, domains P3, P4 and P5 (pQM12: based on pKJ9 with del P1-P2); the atomic model covers residues 264-646; The methods also name pKJ9 (full-length CheA); the results say that CheA.P3-P4-P5 stood in the monolayer arrays; also called CheA.P3-P4-P5; CheA.P3.P4.P5; source: E. coli RP3098, plasmid pQM12, purified (Affi-gel Blue, Superdex 200, Mono Q)
B2 showed a stoichiometry N (CheA per receptor trimer-of-dimers (TOD)) in data set [1] of 1. The “stoichiometry N” value in data set [2] worked out at 2.
